Earlier results as cited in paper PMC4041429.

Target: β clamp (Escherichia coli) (UniProt P0A988)

Kd: < 50 nM
Substance: β clamp (from UniProt P0A988)
